Measurements from the DeepSol protein solubility set.

Experiment: soluble on expression in E. coli; label from the status in PepcDB or PDB records

Sequence | soluble on expression in E. coli
MSLKVVITRPKERADVFASLLKKEGFEPIIFPTLEIVYNKDLDVNLDSYDWIAFTSPSGVIGLYNILTENERENVKNKKIAVIGEKTAKTFKKYFGRDPDIMPNEYTAESLLREIKKVSKEEEKFLIPTTPSTRDVLKNNLNADLLFVYKSAEPENLKEDIKKLKELIAKDKFILTFTSGLTAKNFFKYVDDEFAEIIKDNYIVAIGPITAKVIEKFGFKPLIPKVYTIEGMLEVIRTLKEREGHHHHHH | soluble
MSLKYDVCIIGAGPAGYAAAMRALDLNKSVILIEKDKIGGAGLYNGAISSKTFWELAKDIQTARKRLAQYSPDQHFSVTYQQVLRQVREGIANRRFHLEGQIESLAKQQTSRFRYIKGSAKLVSHNTVEVSTGTEEEIIEAENVVIATGSKPRKLPNIPIDEKIIVTSDGVENFENFPKSLVILGAGVIGCEWATIFSNFGYTSVNIIDKAERILPFEDDDVTDVVEANMKKQGITVHKKSNLLSMRIVDGEVEYILEYTDGRKEMHRVEKVLVSVGRIPNTQNLGLERVGVNILANGQIENTDGQTNIPNIYVAGDISSDVALVNVAELEGRHVIEKMFGLSDSVITYNNVSTIMFVQPEVAGVGMNEKKALQNKMSYKVVKIRYDMIPRAIAMRNNDGFFKILVTNDADMKIIGMRAVGVHASSAIQAVALLISMDKGVEELADMIHPHPSIIEGIQECIRMLLGKSVLKPEFFKGMLSCKSCDENGCVNDIIYLREGHHHHHH | soluble
MSLKYLIDLHTHTIVSGHAYTTLLENIKQASQIGIKILGTSEHGPKMPGAPHIWYFGNMNKVPRKIYDVTVLRGCEADILNSNGDLDIPERIQNELDYIIASLHDVCIEPGTIEDNTKALLNAMNNPNIDILGHTGNPMYPIDIDAVVSKAKEKNVLIEINNGSLSGSREGSYDNCKKIAQACKKKGVKVILGTDSHISFTIGNFDKVQKLLDSVDMPKELIMNTDEKKIVEYLKAKGKLKNEGHHHHHH | soluble
MSLLAEKLQINSITPHPSVEYWSVCKVEALFETPFLELVYRATQVHRKHFNPRAIQLSTLMSIKTGGCPEDCSYCPQSARYHTGVQNQQLLDVDEIVAKAKIAKARGAGRFCMGAAWRGPKPKDIEKVTEIIKAVKSLGLETCGTFGLLQDGMAEDLKEAGLDYYNHNLDTAPEHYAEVIGTRRFDDRLSTLGKVRKAGLKVCCGGIVGMNETRKERAGLIASLANLDPQPESVPINQLVKVEGTPLADAEELDWTEFVRTIAVARITMPKSYVRLSAGRSGMTEEMQAMCFMAGANSIFYGDKLLVTDNPEEDGDQLLMAKLDLEPETAENKKLEGHHHHHH | soluble
MSLLDRLNDDMKQAMKNKEKEKLSVLRMLKAALQNEAIKLGKSPLSEDEELTVLSRELKQRKDSLQEFENAGRSDLVEKVKTEIEIVQSYMPTPLTEDELRELIEQTIKEVGASSKADMGKVMGAIMPKVKGRADGSLVNKLVQQQLS | soluble
MSLLFDSHLHLDQLSDENIQQTLAHSKIIGMLAVSTNLNSAKKLLNLKQTYPKKLYIAAGFHPEQQLPSLEEQKKLFQWIDEHHSSISAIGEVGLPHYSKRENPNLDYVPYIELLERFILIAKKWDLPLNLHIVHNDVEIALELLQKHNIQRAHFHWFKTDEKSFQKFFSTPYFASLTPDILWNSKTQYVAQHLSLNRLMIETDSPWQHEGFERAGISEQLLAVLQKLAELKSLPLHSVQKQILLNTQQFYQLEGHHHHHH | soluble
MSLLGRVLLFYKKGIFNDDLKKFLRSKNINVIDVRIGKYVEVDIMDDPRKVISLIGEPLFMVTEISGTFKPLFYEMRFWECHEIIEEKWREVKNKDDKKFLQAIILLCASLIKYLKGEIEVSDMLMEKALSLISDLPQELLPLLYISLGLNTEGHHHHHH | soluble
MSLLIDFIDETEEVKEEYMSLIREVLEKAAQMENIEDGAEVSVTFVDNERIREINRDYRDKDQPTDVISFAMEEMGEGEMEIVGAEMPRMLGDLIISIPRAKEQAEEYGHSFDRELGFLALHGFLHLLGYDHMTEEDEKEMFGRQKEILEAFGLGR | not soluble
MSLLLIKNGKIITMTGKNYDKGCVLIDNGKIVDVNENIKENKYMKVIDASNFTVIPGIIDAHCHIGIDEQDIGKVGLDINEVSNPVTPNLRAIDAINPMDSAFNDAVMGGITGVMTGPGSANVIGGQFVFMKTYGKCIDDMVVLEPAAVKAALGENPKRVYGGKGKAPVTRMAIAALLREALTEAENYKNKKEALKAKGERIEKNLKLEALIPVIEGNIPLKVHAHRADDILTAIRIAKEFKINITLDHCTEGHLIPEKVKESGYPVLVGPSLTSRSKSEVSNKTFKTPGVLANMGIKTAIITDHPVIPIQYLPICAGLSCREGMKVEDALYAITLNAAEICGVASRLGSIEKGKDADIAIFDGNPMEVFTKTIYTIIDGNIVYKHECYEGHHHHHH | soluble
MSLLNKEALVNRLNASAKRQKADIVIKNGKIMDVYNQEWIYEDIAITDGVIVGLGEYEGENIIDAEGQMIVPGFIDGHVHIESSMVTPIEFAKAVLPHGVTTVVTDPHEIANVSGEKGIEFMLEQARHTPLNIHFMLPSSVPAASFERSGAILKAADLKPFYEEEEVLGLAEVMDYVSVQQAEKDMVQKLLDARVAGKRIDGHLAGLSTDLINIYRTAFVLNDHEVTSKEEALDRIRRGMYVMMREGSVAKNTLNVLPAVNEKNARRFFFCTDDKHVDDLLSEGSVNHQVKMAIQAGLNPFLAYQLGSLNAAECYGLDTKGAIAPGFDADLLFVSDLENVTVTMAMVKGQTVAEDSKAVYQDHASTAAPDQALLDSVKLAAPLNKQDFHMPIDSEQQINVIQIIPNQLETRLVQVPAPVAREFEPDTELDLLKIAVVERHKGLKETGLGVVKGFGFKSGAIATTISHDSHNIIAVGTNDEDIAAAVNKLQEIGGGLTIIKNGEELHSVPLPIAGLLSDQSAEQVNQSLLTLHDKLSLIGFTGGFNPFLTLSFLALPVIPDIKMTTTGLFDVKSFQHISLQEGHHHHHH | soluble
MSLLNSVSAIFLATAMTFAALPQDAQAQDYRFNTVQVDGNQRIETSTIISRMGIERGKTISAGALNDAYQRLLDSGVFETVELIPRGNTLVVKVVEHPTINRINFEGNRRVKDETLEGAIGSQSRRVFTPEQAERDAATIAEIYSTQGRVAATVVPRIIRRSDNRVDLVFEISEGDTIEIERVSFVGNRVFSDRRLRRILETKQAGFLRTFIRSDTFIADRIEFDKQVLRDFYLSRGHVDFRVNSANVEFTRERDAFFLVMDVTEGQQFSFGKITTVSEIPGVEAPAYQDVLKIKPGVVYSPSLVENSIARMERLGLKNGVDFLRVEPRITRNDRDLTLDIEFALVKGPRIFVERIDIEGNTTTLDQVIRRQFRTVEGDPFNPREIRESAERIRALGFFGDANVETREGSTPAQVIVDVDVEEKPTGSLSFGGSYSVSDGFGVAIGLTEDNWLGRGQRLGLTLSTAQDAEQYVLSFTEPQLLGRDLRFDIDLGVANTNSSFASYDTERAFFAPGITFRLGELSTLQLRYRWEASEMVQRTATTVSGAVIASEIAQGKKSSSALGLTYTYDSRIGGLNPNAGVLFEVGVDAAGLGGDNEYFKTSAKAIAQTRVWHEEITLRASLDVGAFTWQGSGFSRAIDRFVIGPNTFRGFEPAGVGPRDQSNGVDDAIGGNYYAVARFEAEFPLGLPEELGLRGGLFYDVGNVWDVSDVNTAGGTIVGADGSFRHVIGFSLLWTTAFGPLRFNFSKALKKETFDKEQSFDLTIQAREGHHHHHH | not soluble
MSLLRETLESGKFAVTTEMAPPKGTDLSHLIECAKPLVGRVHAANVTDFQSAVMRATSLATCKLLKDAGLEPVIQITGRDRNRIAIQGEMLSAGVFGINNLLALTGDHTSVGDHPQAKGVFDLDSVGILQTAETLMAGTDMAGNKLKGSPDFYLGASVTPEYSPIEVQLLKMKKKIKAGAKFFQTQALYDINTMRKFRELTRDMDCKVLAGIVPLKSPGMAKFMTANVPGIFVPDEQIERLRAAGKENWVSEGIKMAGELIKQLKEEDLCDGVHIMAIGAEENIPAILDAAGL | not soluble
MSLLRIRQPKSETVRQFLQTQASRDFSYPMVGATLATPPSEYQVDHTRVRLGHGEESLAQGRIALQKWTQFQLGWVTTFPPALPIQAGEMVAIVARAGGFWWLNACRIVCTIEEPKQFGFAYGTLPAHAESGEERFLIEMDDAGDVWYDILAFSRPNRVSAKLAYPYMRHLQKRFARESAAAMRQAIRPEGHHHHHH | soluble
MSLLSKDIKLLPGSKVEVVIRVSKNVIQEKYNSLLQDYSSRLKIQGFRIGKVPINVIENKYSEGLKATVLEEVINNSFKEFFKEESKIPLSYATPTVKEKNLKLNLDKDFEFTFTYETYPEFKIPSFDEIDIKVEIPEVFIDDSDIDDEIKNLQIENSIIIEDEEGVVKEDSIVKVDFVELDDLSNEIVSTKRQGFVFTVGKSETYYDFDKDVIGMRINEERVIEKSYIADYKFEELAGSSRKLKIKIKSIKKRDLPLIDDEFAQDISDKYNTLDDLKNFIRSSLLNIVEEKKETLKLNKFFSTISEKLEIDIPHSMIEAEIEIAFKDAKRQNKNNMSLEEFKSIFYSSGYIGGDNLKDEILGNLKSKLIMQKMVDLDPIKVTESDVEDEMARQSKNLGVSYEEIKKFYEDQNLISYLKDDIKRERAKKKILENLKEVKGKKLNFRDFVNYKIEGHHHHHH | soluble
MSLLSKVVTQIKGFLHDSVDKASDDGRTARQLIRDVGENEEKIKEALVESRSQAIISKQKVEDKQSAIALSKKRAAKAVELDKEDLARTILVEKRQQESDLAALQNQQAKFDNIVVTLTSRFNDIQKKRSEMERKADSIDLRSKVAAATEEATKLLDVGNFASYDSASKVFDRLEDNIAKKEAKSQARGEFIDAEKDKQDELVSLDRHGLDESIEDELAALRAMNKKQELEHHHHHH | not soluble
MSLLTLAFNPQPRAKTYCSGPILRVSGVWAVKILYIVLDGAADSPTSPRKTLEEASKPNIDSLGSHAVCGMVYTVKPGVAPQSDYATLSLLGYNPDEYYPGRGPLEAFGAGIEMRRGDIALRANFATVDPGTLRIIDRRVGRSLTSREARELASAVDGMELEDGEGTALFRATIGHRGVLVLRHRSKPLSDAISNTDPAYERRGRFSVALEKYEPFIKLSNPLVEDEAAVLAARMLNEFTLKAVEILDSHPVNLAREKRGLLKANAILSRDAGGLPEEKPPSFQERFGLRGASIVEMVVERGISRYIGLDDIRVEIEGRAREEVYREEAARAVEALETHDLVYVHLKGPDEPGHDGSFEGKIRAVEDIDKHFFAPLLDRLSSAGLEPAFVVTSDHATPWDVGAHSGDPVPLMISHQSIQGSIGKFSETVCLRGRLGTIIGGYRIIPKTLSLLAGLEHHHHHH | soluble
MSLNAIARQEPFDLNDPALRARAVAAARGDAPFDMLITGGRLLDAVTGLIREADIGLVGALIASVHAPASRTDAVEIIDATGGILTPGLIDMHMHVESSMVTPAEYASAVLPHGVTTVVWDPHEFGNVQGLDGVRWAIEAARTLPLRMILLAPSCVPSAPGLELAGADFDAAVIAEMLRSPAVGGVAEVMNMRGVIDGDPRMSAIVNSGLASGKLVCGHARGLTGADLNAFMAAGVTSDHELTSGADLAAKLSAGLTIELRGSHDHLLQEFVEVLNGLGHLPATVTLCTDDVFPDELYQSGGLDEVARRLVRYGMKPEWALRAATFNAAQRLKRSDLGLVASGRRADLVLFEDLTELRARLVISDGRIVARNGSMEAAVQPLDTAPLINSTKLPPLTESDFRVPAKGARVRIATIDRPRFTQWGEAETEIRDGFVVPPAGSAMIAVAHRHGKAGGTPRIGFLTGWGEWRGAFCTTVSHDSHNLTVFGGDARDMALAANAVIKAGGGLAVAKDGAIQAILPLPLSGLVTDASLKDTASAFSDIRKAMDKIVDWKPPYRVFKACFGATLACNAGPHQTDRGIADVTTGKVLESPVLEIEGHHHHHH | soluble
